Data on two molecules can be found in patent US20030108545A1.

Several values for one entry are separate records, joined by “and”; a condition that tells them apart may be missing. Identical values can stand only once. Like-named read-outs stand apart in the source and are kept apart here.

For test [1], the target named is KDR (VEGFR-2) expressed on the surface of HUVEC (human) (UniProt P35968). As to the kind of experiment: cell-based or functional assay.
Test [2] addresses soluble fusion protein KDR-AP (KDR (VEGFR-2) extracellular domain fused to human placental alkaline phosphatase) (human) (UniProt P35968). As to the kind of experiment: competitive ELISA: KDR-AP binding to immobilized VEGF165. Background: ELISA stands for enzyme-linked immunosorbent assay.
Test [3] shares this target. The test can be described thus: BIAcore, KDR-AP immobilized. For orientation: Surface plasmon resonance follows binding to a sensor surface in real time, without labels.
Test [4] has the same target. As to the kind of experiment: BIAcore, KDR-AP immobilized. This is another data set of the same source.
Test [5] has as its target human KDR (VEGFR-2), immobilized on ELISA plates (construct not stated) (human) (UniProt P35968). The test can be described thus: direct binding ELISA on KDR-coated plates (ED50, 50% of maximum binding).
The target is the same in test [6]. The test can be described thus: direct binding ELISA on KDR-coated plates, anti-E tag-HRP detection.
For test [7], the target named is soluble fusion protein KDR-AP (KDR (VEGFR-2) extracellular domain fused to human placental alkaline phosphatase) (human) (UniProt P35968). The test can be described thus: competitive VEGF blocking ELISA: KDR-AP binding to immobilized VEGF165.
The target of test [8] is chimeric receptor mouse flk-1 (VEGFR-2)/human fms on transfected 3T3 cells (C441) (mouse; human) (UniProt P35918). As to the kind of experiment: saturation binding to intact C441 cells, colorimetric detection (FIG. 7).
The target is the same in test [9]. As to the kind of experiment: cell-based or functional assay.
Setting [10] is: scale: % of the fully stimulated receptor control.

soluble fusion protein KDR-AP (KDR (VEGFR-2) extracellular domain fused to human placental alkaline phosphatase) (human), sequence (P35968 other isoform, or with tags, fused parts or gaps): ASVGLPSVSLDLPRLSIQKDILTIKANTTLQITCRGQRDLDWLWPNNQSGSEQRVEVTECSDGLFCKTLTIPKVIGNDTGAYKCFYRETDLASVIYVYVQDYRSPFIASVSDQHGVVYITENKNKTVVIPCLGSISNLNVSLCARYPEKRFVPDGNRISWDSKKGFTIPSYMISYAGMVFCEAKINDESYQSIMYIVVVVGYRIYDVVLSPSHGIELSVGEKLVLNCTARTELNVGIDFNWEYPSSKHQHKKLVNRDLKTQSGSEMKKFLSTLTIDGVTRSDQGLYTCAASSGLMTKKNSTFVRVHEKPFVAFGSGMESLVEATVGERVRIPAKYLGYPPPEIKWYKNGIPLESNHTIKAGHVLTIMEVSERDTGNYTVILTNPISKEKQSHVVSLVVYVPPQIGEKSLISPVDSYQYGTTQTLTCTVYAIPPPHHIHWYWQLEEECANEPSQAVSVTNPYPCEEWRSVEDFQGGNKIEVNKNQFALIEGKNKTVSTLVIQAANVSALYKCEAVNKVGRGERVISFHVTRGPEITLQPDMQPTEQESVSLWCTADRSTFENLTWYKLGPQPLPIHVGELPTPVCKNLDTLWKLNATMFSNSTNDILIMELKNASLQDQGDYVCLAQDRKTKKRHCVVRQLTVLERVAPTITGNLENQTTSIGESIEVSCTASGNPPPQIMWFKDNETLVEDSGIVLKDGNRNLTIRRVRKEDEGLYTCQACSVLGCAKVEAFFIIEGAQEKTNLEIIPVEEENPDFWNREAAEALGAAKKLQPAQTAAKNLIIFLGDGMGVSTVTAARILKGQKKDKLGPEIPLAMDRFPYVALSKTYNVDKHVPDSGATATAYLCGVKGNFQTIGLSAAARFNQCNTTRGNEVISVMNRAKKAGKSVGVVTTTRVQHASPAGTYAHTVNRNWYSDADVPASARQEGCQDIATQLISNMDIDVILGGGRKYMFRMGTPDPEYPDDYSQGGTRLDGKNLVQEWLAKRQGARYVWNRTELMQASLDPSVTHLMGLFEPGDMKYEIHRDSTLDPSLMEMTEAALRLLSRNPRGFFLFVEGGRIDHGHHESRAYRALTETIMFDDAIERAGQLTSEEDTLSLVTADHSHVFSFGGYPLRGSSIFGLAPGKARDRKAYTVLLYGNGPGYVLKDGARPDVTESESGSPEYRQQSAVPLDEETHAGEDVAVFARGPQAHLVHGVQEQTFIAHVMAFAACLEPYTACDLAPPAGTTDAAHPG
chimeric receptor mouse flk-1 (VEGFR-2)/human fms on transfected 3T3 cells (C441) (mouse; human), sequence (P35918 other isoform, or with tags, fused parts or gaps mutant limits assumed): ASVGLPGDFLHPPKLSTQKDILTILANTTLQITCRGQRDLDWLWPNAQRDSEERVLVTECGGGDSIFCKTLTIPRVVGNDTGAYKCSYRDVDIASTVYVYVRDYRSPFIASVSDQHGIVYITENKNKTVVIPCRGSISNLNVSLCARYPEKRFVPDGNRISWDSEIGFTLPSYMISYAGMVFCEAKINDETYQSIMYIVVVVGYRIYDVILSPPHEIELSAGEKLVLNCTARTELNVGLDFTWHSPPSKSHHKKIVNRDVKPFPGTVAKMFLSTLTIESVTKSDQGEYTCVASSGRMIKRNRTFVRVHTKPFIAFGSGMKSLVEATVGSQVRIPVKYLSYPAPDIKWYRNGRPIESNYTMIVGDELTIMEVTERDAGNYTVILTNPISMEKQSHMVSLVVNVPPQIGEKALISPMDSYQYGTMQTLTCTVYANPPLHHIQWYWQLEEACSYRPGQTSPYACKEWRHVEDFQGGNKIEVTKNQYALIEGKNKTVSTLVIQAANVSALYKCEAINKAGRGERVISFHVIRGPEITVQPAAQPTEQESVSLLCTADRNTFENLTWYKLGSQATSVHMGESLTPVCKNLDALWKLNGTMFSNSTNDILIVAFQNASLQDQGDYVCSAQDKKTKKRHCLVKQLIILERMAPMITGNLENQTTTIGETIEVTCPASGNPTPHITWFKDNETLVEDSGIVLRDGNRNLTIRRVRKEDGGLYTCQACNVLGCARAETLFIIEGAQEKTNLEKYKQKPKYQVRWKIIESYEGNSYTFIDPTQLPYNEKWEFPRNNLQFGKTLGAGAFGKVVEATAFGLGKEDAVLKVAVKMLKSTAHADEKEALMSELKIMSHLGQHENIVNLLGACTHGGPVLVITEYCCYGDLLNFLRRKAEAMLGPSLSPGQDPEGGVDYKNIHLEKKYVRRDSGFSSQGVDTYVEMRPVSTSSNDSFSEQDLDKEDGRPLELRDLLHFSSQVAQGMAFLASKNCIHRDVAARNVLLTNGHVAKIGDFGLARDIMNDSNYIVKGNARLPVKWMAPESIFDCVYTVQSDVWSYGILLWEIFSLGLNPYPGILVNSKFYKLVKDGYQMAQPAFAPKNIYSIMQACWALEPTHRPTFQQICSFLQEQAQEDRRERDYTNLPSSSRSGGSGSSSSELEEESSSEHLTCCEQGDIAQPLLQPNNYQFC
KDR (VEGFR-2) expressed on the surface of HUVEC (human), sequence (P35968 20-1356): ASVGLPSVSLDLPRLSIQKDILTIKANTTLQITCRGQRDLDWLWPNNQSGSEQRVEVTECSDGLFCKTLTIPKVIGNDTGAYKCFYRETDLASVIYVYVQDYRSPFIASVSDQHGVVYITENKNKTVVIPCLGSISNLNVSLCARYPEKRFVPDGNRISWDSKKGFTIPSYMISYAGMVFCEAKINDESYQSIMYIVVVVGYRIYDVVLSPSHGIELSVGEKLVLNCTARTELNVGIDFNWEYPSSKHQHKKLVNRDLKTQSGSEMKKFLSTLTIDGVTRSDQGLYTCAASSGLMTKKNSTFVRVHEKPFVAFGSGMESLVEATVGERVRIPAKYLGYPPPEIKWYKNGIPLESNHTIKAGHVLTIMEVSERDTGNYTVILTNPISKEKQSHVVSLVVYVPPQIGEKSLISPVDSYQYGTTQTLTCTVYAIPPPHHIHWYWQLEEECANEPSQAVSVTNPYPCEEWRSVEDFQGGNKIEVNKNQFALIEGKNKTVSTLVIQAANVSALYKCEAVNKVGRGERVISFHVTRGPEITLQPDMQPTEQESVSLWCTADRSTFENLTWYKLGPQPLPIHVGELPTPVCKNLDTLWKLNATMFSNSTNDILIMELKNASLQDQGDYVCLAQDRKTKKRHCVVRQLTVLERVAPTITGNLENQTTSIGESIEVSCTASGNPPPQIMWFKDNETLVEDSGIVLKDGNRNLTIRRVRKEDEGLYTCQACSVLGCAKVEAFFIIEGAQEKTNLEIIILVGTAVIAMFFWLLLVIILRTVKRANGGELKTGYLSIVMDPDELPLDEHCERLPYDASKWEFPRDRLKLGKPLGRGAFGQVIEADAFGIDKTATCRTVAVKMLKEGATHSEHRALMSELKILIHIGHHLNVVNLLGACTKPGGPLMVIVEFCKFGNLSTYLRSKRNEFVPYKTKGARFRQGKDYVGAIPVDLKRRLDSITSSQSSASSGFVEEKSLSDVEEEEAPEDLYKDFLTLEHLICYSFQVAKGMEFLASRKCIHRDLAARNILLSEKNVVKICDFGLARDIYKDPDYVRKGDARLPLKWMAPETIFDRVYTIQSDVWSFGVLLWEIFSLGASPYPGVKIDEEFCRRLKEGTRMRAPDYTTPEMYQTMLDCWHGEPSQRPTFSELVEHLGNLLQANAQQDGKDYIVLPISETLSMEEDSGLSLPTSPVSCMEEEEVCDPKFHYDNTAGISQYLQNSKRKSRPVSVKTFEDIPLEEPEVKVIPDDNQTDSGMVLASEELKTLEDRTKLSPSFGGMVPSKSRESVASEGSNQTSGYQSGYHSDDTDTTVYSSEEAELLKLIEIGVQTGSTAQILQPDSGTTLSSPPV
human KDR (VEGFR-2), immobilized on ELISA plates (construct not stated) (human), sequence (P35968 20-764 limits assumed): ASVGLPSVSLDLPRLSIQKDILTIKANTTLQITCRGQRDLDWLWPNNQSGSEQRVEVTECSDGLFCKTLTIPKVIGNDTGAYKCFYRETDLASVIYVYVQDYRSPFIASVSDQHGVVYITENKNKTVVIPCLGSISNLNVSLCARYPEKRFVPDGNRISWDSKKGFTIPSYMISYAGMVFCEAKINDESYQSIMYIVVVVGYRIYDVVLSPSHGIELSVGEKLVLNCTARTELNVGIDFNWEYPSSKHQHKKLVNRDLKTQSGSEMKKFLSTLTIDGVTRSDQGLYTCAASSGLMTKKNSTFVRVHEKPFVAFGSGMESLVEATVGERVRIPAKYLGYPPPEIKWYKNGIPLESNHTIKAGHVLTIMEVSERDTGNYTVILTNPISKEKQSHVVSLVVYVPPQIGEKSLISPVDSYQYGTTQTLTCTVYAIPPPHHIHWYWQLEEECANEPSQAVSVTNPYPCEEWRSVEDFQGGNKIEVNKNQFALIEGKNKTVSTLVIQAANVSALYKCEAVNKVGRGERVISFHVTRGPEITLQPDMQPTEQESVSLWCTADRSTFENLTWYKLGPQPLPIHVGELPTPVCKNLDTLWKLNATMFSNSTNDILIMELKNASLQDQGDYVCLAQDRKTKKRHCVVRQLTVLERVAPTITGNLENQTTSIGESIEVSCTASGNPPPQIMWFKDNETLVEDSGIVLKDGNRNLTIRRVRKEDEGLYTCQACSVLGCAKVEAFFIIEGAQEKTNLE

B1: anti-KDR (VEGFR-2) single chain antibody scFv p1C11 (scFv, from a related filing, not shown: small tags and cut ends)
scFv: QVKLQQSGAELVGSGASVKLSCTTSGFNIKDFYMHWVKQRPEQGLEWIGWIDPENGDSDYAPKFQGKATMTADSSSNTAYLQLSSLTSEDTAVYYCNAYYGDYEGYWGQGTTVTVSSGGGGSGGGGSGGGGSDIELTQSPAIMSASPGEKVTITCSASSSVSYMHWFQQKPGTSPKLWIYSTSNLASGVPARFSGSGSGTSYSLTISRMEAEDAATYYCQQRSSYPFTFGSGTKLEIK
One may read the IC50 as the concentration at which inhibition is half-maximal. Usually koff stands for the first-order rate constant of dissociation. For orientation: kon means a measure of how fast the partners come together. The term Kd denotes the concentration at which binding is half-saturated. As usually defined, the EC50 is the concentration that produces a half-maximal response. The EC50 (read off the curve) is the concentration giving half of the maximal effect. On to B1, for which, in test [1], the EC50 of inhibition of VEGF induced DNA synthesis ([3H]-TdR) in HUVEC stood at 5 nM and the antibody concentration required to inhibit 50% of VEGF-induced mitogenesis of HUVEC is 6 nM. For the same molecule, the IC50 in test [2] stood at 2 nM. For the same molecule, in test [3], the koff amounted to 0.000227 s⁻¹ and the kon stood at 111000 M⁻¹ s⁻¹. In test [4], this molecule displayed a Kd of 2.1 nM, an off-rate (koff) of 0.00023 s⁻¹ and a kon of 110000 M⁻¹ s⁻¹. In addition, in [5], the EC50 was determined as 0.3 nM. The molecule also showed a concentration giving a half-maximal response (EC50 (read off the curve)) in test [6] of 1 nM. Further, the IC50 in [7] came to 3 nM.

B2: rat anti-mouse flk-1 (VEGFR-2) monoclonal antibody DC-101 (antibody, from another filing, V domains shown)
VH: EVQLVETGGGLVQPGNSLKLSCATSGFIFSTTWMNWIRQTPGKRLEWLAQIEDKSNNYFISYSESVKGRFTISRDDSKSSVYLQMNNLKEEDTAIYYCSWKYRSNYYFDYWGQGVMVTVSS
VL: DIVLTQSPALAVSLEQRATISCKTSQNVDYYGISYLHWYQQKPGQQPKLLIYEGSNLASGIPARFSGSGSGTDFTLTIDPVEADDIVTYYCQQSKDYPYTFGAGTKLELKR
For the molecule B2, the relative apparent affinity in test [8] amounted to 500 ng/mL. For the same molecule, in [9], the phosphorylation of flk-1 (VEGFR-2) by VEGF165 (40 ng/ml), antibody titration is > 0.5 µg/mL and < 1 µg/mL. In test [9] (setting [10]), this molecule registered a phosphorylation level by densitometry, antibody added with ligand (C) of 40 and a phosphorylation level by densitometry, antibody prebound (P) of 6.
